# Laboratory results taken from patent publication US20210340225A1.
# Experiments:
# [1] = molecular target: prefusion stabilised SARS-CoV spike ectodomain trimer, residues 1-1160, two proline substitutions, T (SARS-CoV); assay: ELISA, 47D11 titrated on coated spike ectodomain
# [2] = molecular target: prefusion stabilised SARS-CoV spike ectodomain trimer, residues 1-1160, two proline substitutions, T (SARS-CoV); assay: ELISA: spike ectodomain coated on the plate, 47D11 titrated, OD450nm
substance,measurement,setting,value
47D11 fully human IgG1 monoclonal antibody,EC50 (read off the curve),[1],0.2 nM
same,EC50 (read off the curve),[2],0.2 nM
